In experiment [1] the target is T1, 重组的人PD-L1-His (human, UniProt Q9NZQ7 19-238, limits assumed).
T1 construct: Analyte in the BLI assays; also called hPD-L1-His; hPD-L1; not shown: His tag
The experiment can be described thus: BLI (Octet K2), antibody on AHC sensor, hPD-L1-His analyte. (BLI is a label-free optical method that tracks binding on a fibre tip over time.)

Experiment [2] concerns the target T2, hPD-L1-Fc (human, UniProt Q9NZQ7 19-238).
T2 construct: range 1-238; The stated range 1-238 begins at residue 1 and so includes the native signal peptide; No linker is stated; also called hPD-L1-Fc融合蛋白
The experiment can be described thus: ELISA blocking assay, hPD-L1-Fc coated, competitor PD-1-Biotin 10μg/ml. On the technique in general: An ELISA detects its analyte on a solid surface through an enzyme-linked reagent.

For experiment [3], the target named is T1, 重组的人PD-L1-His. The experiment can be described thus: BLI as in Example 4, hPD-L1-His analyte.
The target in experiment [4] is T3, PD-L1 (in the mixed lymphocyte reaction of human dendritic cells and CD4+ T cells) (human, UniProt Q9NZQ7 19-290). The experiment can be described thus: cell-based or functional assay.
T3 sequence (Q9NZQ7 19-290 limits assumed): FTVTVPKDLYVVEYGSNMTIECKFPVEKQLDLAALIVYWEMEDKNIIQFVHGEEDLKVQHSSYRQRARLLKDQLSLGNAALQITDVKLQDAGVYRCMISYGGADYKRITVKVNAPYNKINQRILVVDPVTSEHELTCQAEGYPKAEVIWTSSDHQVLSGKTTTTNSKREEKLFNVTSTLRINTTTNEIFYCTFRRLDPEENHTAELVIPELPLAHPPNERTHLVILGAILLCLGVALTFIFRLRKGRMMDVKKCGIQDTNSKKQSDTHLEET
In experiment [5] the target is T4, hPD-L1-EGFP细胞 (HEK293 cells expressing human PD-L1-EGFP) (human, UniProt Q9NZQ7 19-290).
T4 construct: Fusion expressed on transfected HEK293 cells; junction between PD-L1 and EGFP not described; also called 细胞表面PD-L1; not shown: enhanced green fluorescent protein EGFP, UniProt C5MKY7
T4 sequence (Q9NZQ7 19-290): as the sequence (Q9NZQ7 19-290 limits assumed) above
The experiment can be described thus: FACS on PD-L1-EGFP cells.

Experiment [6] deals with T5, hPD-1-EGFP细胞 (HEK293 cells expressing human PD-1-EGFP) (human, UniProt Q15116 25-288).
T5 construct: Fusion expressed on transfected HEK293 cells; not shown: enhanced green fluorescent protein EGFP, UniProt C5MKY7
T5 sequence (Q15116 25-288): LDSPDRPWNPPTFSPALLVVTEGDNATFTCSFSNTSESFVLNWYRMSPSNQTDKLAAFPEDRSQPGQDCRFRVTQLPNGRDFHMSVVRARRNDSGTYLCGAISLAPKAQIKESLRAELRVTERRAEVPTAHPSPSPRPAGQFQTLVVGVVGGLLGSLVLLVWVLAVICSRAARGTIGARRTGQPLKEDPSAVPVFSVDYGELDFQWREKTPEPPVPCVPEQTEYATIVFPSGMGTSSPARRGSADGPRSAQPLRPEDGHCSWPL
The experiment can be described thus: FACS on transfected HEK293 cells.

Experiment [7] concerns the target T6, hB7H3-EGFP细胞 (HEK293 cells expressing human B7H3-EGFP) (human, UniProt Q5ZPR3 29-534).
T6 construct: not shown: enhanced green fluorescent protein EGFP, UniProt C5MKY7
T6 sequence (looked up): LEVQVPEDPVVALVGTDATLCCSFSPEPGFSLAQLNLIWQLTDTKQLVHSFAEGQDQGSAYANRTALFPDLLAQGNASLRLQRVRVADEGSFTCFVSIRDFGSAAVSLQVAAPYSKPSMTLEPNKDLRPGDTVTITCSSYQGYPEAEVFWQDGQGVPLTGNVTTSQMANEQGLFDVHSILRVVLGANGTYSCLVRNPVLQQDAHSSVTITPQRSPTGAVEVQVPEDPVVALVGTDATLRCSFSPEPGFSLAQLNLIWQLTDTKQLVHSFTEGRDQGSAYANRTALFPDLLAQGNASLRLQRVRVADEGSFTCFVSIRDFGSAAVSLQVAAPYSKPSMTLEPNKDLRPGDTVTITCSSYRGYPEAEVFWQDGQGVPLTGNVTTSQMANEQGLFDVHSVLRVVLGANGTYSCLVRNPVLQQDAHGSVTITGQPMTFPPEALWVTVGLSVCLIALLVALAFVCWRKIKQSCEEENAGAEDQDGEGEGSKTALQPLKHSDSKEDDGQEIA
The experiment can be described thus: FACS on transfected HEK293 cells.

Experiment [8] addresses T7, hB7H4细胞 (HEK293 cells expressing human B7H4-EGFP) (human, UniProt Q7Z7D3 25-282).
T7 construct: also called hB7H4-EGFP; not shown: enhanced green fluorescent protein EGFP, UniProt C5MKY7
T7 sequence (looked up): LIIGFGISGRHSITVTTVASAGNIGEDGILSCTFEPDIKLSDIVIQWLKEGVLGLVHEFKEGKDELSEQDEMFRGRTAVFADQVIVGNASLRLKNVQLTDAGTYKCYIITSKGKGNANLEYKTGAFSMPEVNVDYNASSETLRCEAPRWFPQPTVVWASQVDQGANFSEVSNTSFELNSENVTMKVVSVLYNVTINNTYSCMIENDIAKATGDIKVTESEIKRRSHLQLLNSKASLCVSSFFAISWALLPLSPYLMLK
The experiment can be described thus: FACS on transfected HEK293 cells.

Experiment [9] has as its target T8, mPD-L1细胞 (HEK293 cells expressing mouse PD-L1-EGFP) (mouse, UniProt Q9EP73 19-290).
T8 construct: also called mPD-L1-EGFP; 小鼠PD-L1; not shown: enhanced green fluorescent protein EGFP, UniProt C5MKY7
The experiment can be described thus: FACS on transfected HEK293 cells.

For experiment [10], the target named is T1, 重组的人PD-L1-His. The experiment can be described thus: BLI (Octet K2), antibody on AMC sensor, hPD-L1-His analyte.
Experiment [11] concerns the target T3, PD-L1 (in the mixed lymphocyte reaction …). The experiment can be described thus: cell-based or functional assay. The source holds these as a separate data set.
Experiment [12] has the same target. The experiment can be described thus: cell-based or functional assay. The source holds these as a separate data set.
For experiment [13], the target named is T1, 重组的人PD-L1-His. The experiment can be described thus: BLI as in Example 4, hPD-L1-His analyte. The source holds these as a separate data set.

Like-named read-outs stand apart in the source and are kept apart here.

T1 sequence (Q9NZQ7 19-238 limits assumed): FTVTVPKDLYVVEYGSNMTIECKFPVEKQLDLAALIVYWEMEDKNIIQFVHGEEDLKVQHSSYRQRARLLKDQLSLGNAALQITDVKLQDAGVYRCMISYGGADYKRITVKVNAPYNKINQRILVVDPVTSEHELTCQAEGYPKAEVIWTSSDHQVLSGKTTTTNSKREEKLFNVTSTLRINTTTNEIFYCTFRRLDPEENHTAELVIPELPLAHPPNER
T2 sequence (Q9NZQ7 19-238 limits assumed, form in doubt): as the sequence (Q9NZQ7 19-238 limits assumed) above
T8 sequence (Q9EP73 19-290): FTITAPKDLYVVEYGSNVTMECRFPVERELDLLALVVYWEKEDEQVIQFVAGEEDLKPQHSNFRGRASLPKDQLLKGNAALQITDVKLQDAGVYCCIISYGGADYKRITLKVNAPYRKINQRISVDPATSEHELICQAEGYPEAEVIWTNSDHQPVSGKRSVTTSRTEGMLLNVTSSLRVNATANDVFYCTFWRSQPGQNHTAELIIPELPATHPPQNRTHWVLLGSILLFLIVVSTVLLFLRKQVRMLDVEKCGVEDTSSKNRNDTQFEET

B1: 人源化抗体8G1 3-3 (antibody, V domains shown)
VH: QVQLVQSGAEVKKPGASVKVSCKASGYTFTEYIIHWVKQAPGQGLEWIGWFYPGSGNIRYNEKFKDKATLTADKSSSTVYMELSSLRSEDTAVYFCARHEDKGAWFAYWGQGTLVTVSS
VL: DIVLTQSPATLSLSPGERATLSCSASSNVSYMYWYQQKPGQSPKPWIYLTSNLASGVPARFTGSGSGTSYTLTISSLEPEDFAVYYCQQWSSNPLTFGQGTKVEIK
notes: Humanized; also called 8G1VLV3 + 8G1VHV3
As usually defined, the Kd is the concentration at which binding is half-saturated. A lower Kd goes with tighter binding. The term koff denotes the rate constant with which the complex falls apart. A lower koff goes with slow dissociation. In general, kon refers to a measure of how fast the partners come together. Low readings indicate slower complex formation, high ones faster complex formation. For orientation: IC50 means the concentration that gives 50% inhibition. Take B1: in experiment [1], the Kd amounted to 0.0163 nM, the koff was determined as 5.79e-06 s⁻¹ and the on-rate constant (kon) came to 355000 M⁻¹ s⁻¹. For the same molecule, in experiment [2], the IC50 came out at 1.24 µg/mL.

B2: 8G1 3-3NG (antibody, V domains shown)
VH: QVQLVQSGAEVKKPGASVKVSCKASGYTFTEYIIHWVKQAPGQGLEWIGWFYPGSGNIRYNEKFKDKATLTADKSSSTVYMELSSLRSEDTAVYFCARHEDKGAWFAYWGQGTLVTVSS
VL: DIVLTQSPATLSLSPGERATLSCSASSQVSYMYWYQQKPGQSPKPWIYLTSNLASGVPARFTGSGSGTSYTLTISSLEPEDFAVYYCQQWSSNPLTFGQGTKVEIK
notes: Glycosylation-site variant of humanized 8G1 3-3; human IgG1 format as for 8G1 3-3; also called 8G1 3-3 with N28 mutated in VL
In experiment [3], B2 gave a Kd of 6.89 nM, a dissociation rate constant (koff) of 0.00174 s⁻¹ and a kon of 252000 M⁻¹ s⁻¹.

B3: 抗体8G1 (antibody, V domains shown)
VH: KVQLRQSGAELVKPGTSVKLSCKASGYTFTEYIIHWVKQRSGQGLEWIGWFYPGSGNIRYNEKFKDKATLTADKSSSTVYMELSRLTSEDSAVYFCARHEDKGAWFAYWGQGTLVTVSA
VL: DIVLTQSPALLSASPGEKVTMTCSASSNVSYMYWYQQKPRSSPKPWIYLTSNLASGVPARFTGSGSGTSYSLTISSMEAEDGATYYCQQWSSNPLTFGAGTKLEVK
notes: Mouse antibody purified from hybridoma supernatant on protein A
Usually EC50 stands for the concentration at which the effect is half-maximal. A higher EC50 goes with lower potency in that assay. Regarding B3, the “EC50 of IFN-γ secretion in mixed lymphocyte reaction (MLR)” value (from here on “EC50 of IFN-γ secretion”) in [4] is about 0.03 µg/mL. The response in experiment [5] was half-maximal at 2.25 µg/mL (EC50). Moreover, the binding result in [6], in experiment [7], in [8] and in [9] was “no binding (tested: 10μg/ml)” each time. This molecule also yielded a Kd in experiment [10] of 2.32 nM. For the same molecule, the koff in experiment [10] was found to be 0.00117 s⁻¹. For the same molecule, the kon in experiment [10] was determined as 504000 M⁻¹ s⁻¹.

B4: 抗体5A5 (antibody, V domains shown)
VH: EVQLQESGPSLVKPSQTLSLTCSVTGDSITSGYWNWIRKFPGNKLEYMGYISYTGSTYYNPSLKSRISITRDTSKNQYYLQLNSVTTEDTATYYCAKYGLWHLPAAMDYWGQGTSVTVSS
VL: DIVLTQSPAIMSASPGEKVTMTCSASSSISYMHWYQQKPGTSPKRWIYDTSKLASGVPARFSGSGSGTSYSLTISSMEAEDAATYYCHQRSSYPFTFGSGTKLEIK
notes: as for B3
On to B4, for which, in experiment [4], the “EC50 of IFN-γ secretion” value was found to be 0.104 µg/mL. This molecule also showed an EC50 in experiment [5] of 1.33 µg/mL. Moreover, the binding result in [6], in experiment [7], in experiment [8] and in [9] was “no binding (tested: 10μg/ml)” each time. The same molecule registered a Kd in experiment [10] of 5.75 nM. In experiment [10], this molecule yielded an off-rate constant (koff) of 0.00453 s⁻¹. Moreover, the kon in [10] stood at 788000 M⁻¹ s⁻¹.

B5: 抗体7A3 (antibody, V domains shown)
VH: EVQLQESGPSLVKPSQTLSLTCSVTGDSITSGYWNWIRKFPGNDLEYMGYISYTGSTYYNPSLKSRISITRDTSKNQYYLQLNSVTTEDTATYYCARFGLWHLPAALDYWGQGTSVTVSS
VL: DIVLTQSPAIMSASPGEKVTMTCSAKSSISYMHWYQQKPGTSPKRWIYDTSKLASGVPARFSGSGSGTSYSLTISSMEAEDAATYYCHQRSSYPFTFGSGTKLEIK
notes: as for B3
With B5, the “EC50 of IFN-γ secretion” value in [4] amounted to 0.0588 µg/mL. In experiment [5], this molecule showed a 50% effective concentration (EC50) of 2.76 µg/mL. The binding result in [6], in experiment [7], in experiment [8] and in [9] was “no binding (tested: 10μg/ml)” throughout. Also, the affinity in experiment [10], expressed as Kd, was 4.29 nM. The koff in experiment [10] is 0.0036 s⁻¹. This molecule also gave a kon in [10] of 840000 M⁻¹ s⁻¹.

B6: 人源化抗体7A3 3-3 (antibody, V domains shown)
VH: QVQLQESGPGLVKPSETLSLTCTVSGDSITSGYWNWIRKPPGNGLEYMGYISYTGSTYYNPSLKSRITITRDTSKNQYSLKLSSVTAADTAVYYCARFGLWHLPAALDYWGQGTLVTVSS
VL: DIVLTQSPATLSLSPGERATLSCSAKSSISYMHWYQQKPGTSPKRWIYDTSKLASGVPARFSGSGSGTSYTLTISSLEPEDFAVYYCHQRSSYPFTFGQGTKVEIK
notes: Humanized; also called 7A3VLV3 + 7A3VHV3
For B6, the “EC50 of IFN-γ secretion” value was 0.449 µg/mL in experiment [11] and 0.0285 µg/mL in experiment [12]. Further, the equilibrium dissociation constant (Kd) in experiment [13] came out at 13.2 nM; in experiment [1], 2.85 nM. In addition, the values for the koff in experiment [13] and in [1] were 0.00547 s⁻¹ and 0.00128 s⁻¹, respectively. In addition, the on-rate constant (kon) worked out at 415000 M⁻¹ s⁻¹ in experiment [13] and 449000 M⁻¹ s⁻¹ in experiment [1]. In addition, the concentration for half-maximal inhibition (IC50) in experiment [2] came out at 1.44 µg/mL.

B7: 7A3 3-3QG (antibody, V domains shown)
VH: QVQLQESGPGLVKPSETLSLTCTVSGDSITSGYWNWIRKPPGQGLEYMGYISYTGSTYYNPSLKSRITITRDTSKNQYSLKLSSVTAADTAVYYCARFGLWHLPAALDYWGQGTLVTVSS
VL: DIVLTQSPATLSLSPGERATLSCSAKSSISYMHWYQQKPGTSPKRWIYDTSKLASGVPARFSGSGSGTSYTLTISSLEPEDFAVYYCHQRSSYPFTFGQGTKVEIK
notes: human IgG1 format as for 7A3 3-3; also called 7A3 3-3 with N43Q in VH
B7: the “EC50 of IFN-γ secretion” value in experiment [12] turned out to be 1.05 µg/mL.

B8: 7A3 3-3ND (antibody, V domains shown)
VH: QVQLQESGPGLVKPSETLSLTCTVSGDSITSGYWNWIRKPPGNDLEYMGYISYTGSTYYNPSLKSRITITRDTSKNQYSLKLSSVTAADTAVYYCARFGLWHLPAALDYWGQGTLVTVSS
VL: DIVLTQSPATLSLSPGERATLSCSAKSSISYMHWYQQKPGTSPKRWIYDTSKLASGVPARFSGSGSGTSYTLTISSLEPEDFAVYYCHQRSSYPFTFGQGTKVEIK
notes: human IgG1 format as for 7A3 3-3; also called 7A3 3-3 with G44D in VH
For the molecule B8, the “EC50 of IFN-γ secretion” value in experiment [12] came out at 0.576 µg/mL. In experiment [13], this molecule came in with a Kd of 14.4 nM, a dissociation rate constant (koff) of 0.00631 s⁻¹ and a kon of 438000 M⁻¹ s⁻¹.

B9: 人源化抗体7A3 1-3 (antibody, V domains shown)
VH: QVQLQESGPGLVKPSETLSLTCTVSGDSITSGYWNWIRKPPGNGLEYMGYISYTGSTYYNPSLKSRITITRDTSKNQYSLKLSSVTAADTAVYYCARFGLWHLPAALDYWGQGTLVTVSS
VL: DIVLTQSPATLSLSPGERATLSCSAKSSISYMHWYQQKPGQAPRLLIYDTSKLASGVPARFSGSGSGTDFTLTISSLEPEDFAVYYCHQRSSYPFTFGQGTKVEIK
notes: Humanized; also called 7A3VLV1 + 7A3VHV3
For the molecule B9, the “EC50 of IFN-γ secretion” value in experiment [11] is about 0.176 µg/mL. Moreover, in experiment [1], binding was characterised by a dissociation constant (Kd) of 23.6 nM, the koff turned out to be 0.0119 s⁻¹ and the association rate constant (kon) stood at 504000 M⁻¹ s⁻¹. For the same molecule, the half-inhibitory concentration (IC50) in [2] was 1.82 µg/mL.

These data come from patent CN111662383A (ZHUHAI LIVZON MCAB BIOTECHNOLOGY CO LTD; DINGFU BIOTARGET …, dated 2020).
